These results are taken from article PMC10786891, “Massively parallel profiling of RNA-targeting CRISPR-Cas13d”.

The labels stand for the following.
T1: EsCas13d, nuclease-dead (Eubacterium siraeum, UniProt B0MS50, R295A;H300A;R849A;H854A)
T1 sequence: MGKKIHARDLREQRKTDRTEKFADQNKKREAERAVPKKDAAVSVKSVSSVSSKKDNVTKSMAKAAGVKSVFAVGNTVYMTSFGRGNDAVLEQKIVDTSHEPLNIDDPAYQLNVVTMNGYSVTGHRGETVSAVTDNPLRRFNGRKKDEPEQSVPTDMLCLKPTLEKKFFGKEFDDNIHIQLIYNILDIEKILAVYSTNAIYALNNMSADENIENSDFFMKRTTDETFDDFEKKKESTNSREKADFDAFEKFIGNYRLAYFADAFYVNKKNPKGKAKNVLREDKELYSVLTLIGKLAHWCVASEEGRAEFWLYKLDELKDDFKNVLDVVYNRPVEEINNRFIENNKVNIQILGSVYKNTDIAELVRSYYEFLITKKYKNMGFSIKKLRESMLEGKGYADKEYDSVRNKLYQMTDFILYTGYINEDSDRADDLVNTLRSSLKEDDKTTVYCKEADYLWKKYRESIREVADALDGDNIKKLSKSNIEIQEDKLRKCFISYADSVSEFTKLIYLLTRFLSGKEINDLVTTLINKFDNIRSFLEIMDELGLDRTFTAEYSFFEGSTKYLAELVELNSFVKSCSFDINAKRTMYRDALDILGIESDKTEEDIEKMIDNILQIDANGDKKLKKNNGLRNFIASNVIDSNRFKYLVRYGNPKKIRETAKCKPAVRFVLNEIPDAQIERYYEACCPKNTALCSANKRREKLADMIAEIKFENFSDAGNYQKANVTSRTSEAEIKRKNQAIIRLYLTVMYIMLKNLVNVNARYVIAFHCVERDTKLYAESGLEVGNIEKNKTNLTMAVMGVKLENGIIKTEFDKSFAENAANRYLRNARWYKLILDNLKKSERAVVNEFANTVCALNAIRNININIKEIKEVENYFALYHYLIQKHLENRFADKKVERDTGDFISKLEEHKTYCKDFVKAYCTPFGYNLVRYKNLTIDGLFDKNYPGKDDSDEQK

B1: target 1 insU 3' of 15,insA 3' of 6 (mixed)
RNA 1: CACCCGUGCAAAAAUGCAGGGGUCUAAAACUGAGCGGAUAACCUCUCUAUGG
RNA 2: GGGAAUGGAUCCACAUCUACGAAUUCGUACCAUAGAGUAGGUUAUCCAGCUCACCGAGAUCGGAAGAGCACACGU
B2: target 1 del8,del18 (mixed)
RNA 1: CACCCGUGCAAAAAUGCAGGGGUCUAAAACUGAGCGGAUAACCUCUCUAUGG
RNA 2: GGGAAUGGAUCCACAUCUACGAAUUCGUACCAUGAGAGGUUACCGCUCACCGAGAUCGGAAGAGCACACGU
B3: target 1 insU 3' of 13,insU 3' of 4 (mixed)
RNA 1: CACCCGUGCAAAAAUGCAGGGGUCUAAAACUGAGCGGAUAACCUCUCUAUGG
RNA 2: GGGAAUGGAUCCACAUCUACGAAUUCGUACCAUAGAGAGUGUUAUCCGCUUCACCGAGAUCGGAAGAGCACACGU
B4: target 1 insC 3' of 15,insC 3' of 11 (mixed)
RNA 1: CACCCGUGCAAAAAUGCAGGGGUCUAAAACUGAGCGGAUAACCUCUCUAUGG
RNA 2: GGGAAUGGAUCCACAUCUACGAAUUCGUACCAUAGAGCAGGUCUAUCCGCUCACCGAGAUCGGAAGAGCACACGU
B5: target 1 insU 3' of 21,insA 3' of 5 (mixed)
RNA 1: CACCCGUGCAAAAAUGCAGGGGUCUAAAACUGAGCGGAUAACCUCUCUAUGG
RNA 2: GGGAAUGGAUCCACAUCUACGAAUUCGUACCUAUAGAGAGGUUAUCCGACUCACCGAGAUCGGAAGAGCACACGU
B6: target 1 insU 3' of 4,insC 3' of 1 (mixed)
RNA 1: CACCCGUGCAAAAAUGCAGGGGUCUAAAACUGAGCGGAUAACCUCUCUAUGG
RNA 2: GGGAAUGGAUCCACAUCUACGAAUUCGUACCAUAGAGAGGUUAUCCGCUUCACCCGAGAUCGGAAGAGCACACGU
B7: target 1 insA 3' of 19,insG 3' of 19 (mixed)
RNA 1: CACCCGUGCAAAAAUGCAGGGGUCUAAAACUGAGCGGAUAACCUCUCUAUGG
RNA 2: GGGAAUGGAUCCACAUCUACGAAUUCGUACCAUAGAGAGAGGUUAUCCGCUCACCGAGAUCGGAAGAGCACACGU
B8: target 1 insA 3' of 8,insG 3' of 8 (mixed)
RNA 1: CACCCGUGCAAAAAUGCAGGGGUCUAAAACUGAGCGGAUAACCUCUCUAUGG
RNA 2: GGGAAUGGAUCCACAUCUACGAAUUCGUACCAUAGAGAGGUUAUAGCCGCUCACCGAGAUCGGAAGAGCACACGU
B9: target 1 del15 (mixed)
RNA 1: CACCCGUGCAAAAAUGCAGGGGUCUAAAACUGAGCGGAUAACCUCUCUAUGG
RNA 2: GGGAAUGGAUCCACAUCUACGAAUUCGUACCAUAGAAGGUUAUCCGCUCACCGAGAUCGGAAGAGCACACGU
B10: target 1 insA 3' of 19,insA 3' of 19 (mixed)
RNA 1: CACCCGUGCAAAAAUGCAGGGGUCUAAAACUGAGCGGAUAACCUCUCUAUGG
RNA 2: GGGAAUGGAUCCACAUCUACGAAUUCGUACCAUAAAGAGAGGUUAUCCGCUCACCGAGAUCGGAAGAGCACACGU
B11: target 1 insU 3' of 6,insA 3' of 6 (mixed)
RNA 1: CACCCGUGCAAAAAUGCAGGGGUCUAAAACUGAGCGGAUAACCUCUCUAUGG
RNA 2: GGGAAUGGAUCCACAUCUACGAAUUCGUACCAUAGAGAGGUUAUCCUAGCUCACCGAGAUCGGAAGAGCACACGU
B12: target 1 C2G,C21A (mixed)
RNA 1: CACCCGUGCAAAAAUGCAGGGGUCUAAAACUGAGCGGAUAACCUCUCUAUGG
RNA 2: GGGAAUGGAUCCACAUCUACGAAUUCGUACAAUAGAGAGGUUAUCCGCUGACCGAGAUCGGAAGAGCACACGU
B13: target 1 U10C,G15A (mixed)
RNA 1: CACCCGUGCAAAAAUGCAGGGGUCUAAAACUGAGCGGAUAACCUCUCUAUGG
RNA 2: GGGAAUGGAUCCACAUCUACGAAUUCGUACCAUAGAAAGGUCAUCCGCUCACCGAGAUCGGAAGAGCACACGU
B14: target 1 insU 3' of 20,insA 3' of 12 (mixed)
RNA 1: CACCCGUGCAAAAAUGCAGGGGUCUAAAACUGAGCGGAUAACCUCUCUAUGG
RNA 2: GGGAAUGGAUCCACAUCUACGAAUUCGUACCAUUAGAGAGGAUUAUCCGCUCACCGAGAUCGGAAGAGCACACGU
B15: target 1 G5U,G15A (mixed)
RNA 1: CACCCGUGCAAAAAUGCAGGGGUCUAAAACUGAGCGGAUAACCUCUCUAUGG
RNA 2: GGGAAUGGAUCCACAUCUACGAAUUCGUACCAUAGAAAGGUUAUCCUCUCACCGAGAUCGGAAGAGCACACGU
B16: target 1 A9C,G12C (mixed)
RNA 1: CACCCGUGCAAAAAUGCAGGGGUCUAAAACUGAGCGGAUAACCUCUCUAUGG
RNA 2: GGGAAUGGAUCCACAUCUACGAAUUCGUACCAUAGAGAGCUUCUCCGCUCACCGAGAUCGGAAGAGCACACGU
B17: target 1 insU 3' of 21,insU 3' of 5 (mixed)
RNA 1: CACCCGUGCAAAAAUGCAGGGGUCUAAAACUGAGCGGAUAACCUCUCUAUGG
RNA 2: GGGAAUGGAUCCACAUCUACGAAUUCGUACCUAUAGAGAGGUUAUCCGUCUCACCGAGAUCGGAAGAGCACACGU
B18: target 1 insC 3' of 22,insG 3' of 3 (mixed)
RNA 1: CACCCGUGCAAAAAUGCAGGGGUCUAAAACUGAGCGGAUAACCUCUCUAUGG
RNA 2: GGGAAUGGAUCCACAUCUACGAAUUCGUACCCAUAGAGAGGUUAUCCGCUGCACCGAGAUCGGAAGAGCACACGU
B19: target 1 insU 3' of 20,insU 3' of 15 (mixed)
RNA 1: CACCCGUGCAAAAAUGCAGGGGUCUAAAACUGAGCGGAUAACCUCUCUAUGG
RNA 2: GGGAAUGGAUCCACAUCUACGAAUUCGUACCAUUAGAGUAGGUUAUCCGCUCACCGAGAUCGGAAGAGCACACGU
B20: target 1 insC 3' of 20,insC 3' of 8 (mixed)
RNA 1: CACCCGUGCAAAAAUGCAGGGGUCUAAAACUGAGCGGAUAACCUCUCUAUGG
RNA 2: GGGAAUGGAUCCACAUCUACGAAUUCGUACCACUAGAGAGGUUAUCCCGCUCACCGAGAUCGGAAGAGCACACGU
B21: target 1 C4G,G5A (mixed)
RNA 1: CACCCGUGCAAAAAUGCAGGGGUCUAAAACUGAGCGGAUAACCUCUCUAUGG
RNA 2: GGGAAUGGAUCCACAUCUACGAAUUCGUACCAUAGAGAGGUUAUCCAGUCACCGAGAUCGGAAGAGCACACGU
B22: target 1 insA 3' of 11,insA 3' of 7 (mixed)
RNA 1: CACCCGUGCAAAAAUGCAGGGGUCUAAAACUGAGCGGAUAACCUCUCUAUGG
RNA 2: GGGAAUGGAUCCACAUCUACGAAUUCGUACCAUAGAGAGGUAUAUCACGCUCACCGAGAUCGGAAGAGCACACGU
B23: target 1 U10A,G12U (mixed)
RNA 1: CACCCGUGCAAAAAUGCAGGGGUCUAAAACUGAGCGGAUAACCUCUCUAUGG
RNA 2: GGGAAUGGAUCCACAUCUACGAAUUCGUACCAUAGAGAGUUAAUCCGCUCACCGAGAUCGGAAGAGCACACGU
B24: target 1 C2U,C7G (mixed)
RNA 1: CACCCGUGCAAAAAUGCAGGGGUCUAAAACUGAGCGGAUAACCUCUCUAUGG
RNA 2: GGGAAUGGAUCCACAUCUACGAAUUCGUACCAUAGAGAGGUUAUGCGCUUACCGAGAUCGGAAGAGCACACGU
B25: target 1 A9U,G17C (mixed)
RNA 1: CACCCGUGCAAAAAUGCAGGGGUCUAAAACUGAGCGGAUAACCUCUCUAUGG
RNA 2: GGGAAUGGAUCCACAUCUACGAAUUCGUACCAUACAGAGGUUUUCCGCUCACCGAGAUCGGAAGAGCACACGU
B26: target 1 insG 3' of 3,insU 3' of 2 (mixed)
RNA 1: CACCCGUGCAAAAAUGCAGGGGUCUAAAACUGAGCGGAUAACCUCUCUAUGG
RNA 2: GGGAAUGGAUCCACAUCUACGAAUUCGUACCAUAGAGAGGUUAUCCGCUGCUACCGAGAUCGGAAGAGCACACGU
B27: target 1 U3C,C4A (mixed)
RNA 1: CACCCGUGCAAAAAUGCAGGGGUCUAAAACUGAGCGGAUAACCUCUCUAUGG
RNA 2: GGGAAUGGAUCCACAUCUACGAAUUCGUACCAUAGAGAGGUUAUCCGACCACCGAGAUCGGAAGAGCACACGU

The Kd is the free concentration of one partner at which half of the binding sites on the other are occupied at equilibrium, for simple one-to-one binding. Lower therefore signals tighter binding.

The series concerns the target T1, EsCas13d, nuclease-dead. Nature of the series: crRNA (strand 1, pre-loaded); Mg2+; 40 mM Tris-HCl pH 7.5, 150 mM NaCl, 6 mM MgCl2, 1 mM DTT, 0.1% Tween-20, 0.2 mg/ml BSA; 25 C; 10 min per concentration, then washed. The following applies: tags: His6-TwinStrep-SUMO cleaved; N-terminal SNAP kept (SNAP-Surface 488); label: 3' end held by stalled T7 RNA polymerase.
In turn, B1 showed a dissociation constant (Kd) of 21.4 ± 2 nM.
On to B2, for which the Kd is 75 ± 10 nM.
Molecule B3 yielded a Kd of 21 ± 2.6 nM. This Kd lies about 3.6-fold lower than the previous one.
For B4 the value was 36.9 ± 3.4 nM; for B5, 28 ± 6 nM.
Under B6 stands 16.8 ± 1.8 nM.
For the molecule B7, the Kd is 8.62 ± 0.31 nM.
Under B8 stands 33.1 ± 2.6 nM.
Under B9 stands 8.96 ± 0.33 nM; under B10, 22.1 ± 2.4 nM; under B11, 13.8 ± 1.3 nM.
In the case of B12, the affinity, expressed as Kd, was 36 ± 8 nM.
For B13 the value was 31.3 ± 1.3 nM; for B14, 33.3 ± 2.5 nM; for B15, 16.5 ± 1.3 nM.
Under B16 stands 23.1 ± 2.1 nM; under B17, 34 ± 7 nM; under B18, 11 ± 0.7 nM.
The molecule B19 had a Kd of 19.1 ± 1.6 nM. This Kd is about 1.7-fold higher than that of the molecule before.
For B20, binding was put at a Kd of 15.2 ± 1.7 nM.
For B21 the value was 83 ± 17 nM.
For B22 the value was 14.3 ± 0.7 nM.
Under B23 stands 8.6 ± 0.8 nM.
The molecule B24 yielded a Kd of 8.54 ± 0.22 nM.
For B25 the value was roughly 90 nM; for B26, 10.1 ± 0.4 nM; for B27, 12.1 ± 1.2 nM.
